# Measured values from patent publication US20250129143A1.
# How the values were obtained:
# [1] = biological target: K63 (human); assay: immunoprecipitation from HCT-116 cell extract; gel region of 62 kDa or more; quantitative mass spectrometry with stable isotope-labeled peptides [panel A]
# [2] = biological target: K11 (human); assay: as above
# [3] = biological target: K29 (human); assay: as above
# [4] = biological target: K27 (human); assay: as above
# [5] = biological target: K33 (human); assay: as above
# [6] = biological target: polyubiquitinated substrates (HCT-116 cell extract); assay: as above
# [7] = biological target: M1 (human); assay: as above
# [8] = biological target: K48 (human); assay: as above
# [9] = biological target: K6 (human); assay: as above
# [10] = biological target: K63 (human); assay: immunoprecipitation from HCT-116 cell extract; quantitative mass spectrometry; pie chart [panel B]
# [11] = biological target: K11 (human); assay: as above
# [12] = biological target: K29 (human); assay: as above
# [13] = biological target: K27 (human); assay: as above
# [14] = biological target: K33 (human); assay: as above
# [15] = biological target: M1 (human); assay: as above
# [16] = biological target: K48 (human); assay: as above
# [17] = biological target: K6 (human); assay: as above
# [18] = biological target: polyubiquitinated substrates (HCT-116 cell extract); assay: immunoprecipitation (Halo tag-fused wild-type monobody) from HCT-116 cell extract; gel region of 62 kDa or more; quantitative mass spectrometry with stable isotope-labeled peptides [panel A]
Substance,K63 chain-derived peptide in the immunoprecipitate [1] [fmol],K11 chain-derived peptide in the immunoprecipitate [2] [fmol],K29 chain-derived peptide in the immunoprecipitate [3] [fmol],K27 chain-derived peptide in the immunoprecipitate [4] [fmol],K33 chain-derived peptide in the immunoprecipitate [5] [fmol],EST peptide (…) in the immunoprecipitate [6] [fmol],total ubiquitin in the immunoprecipitate (EST + K63 peptides) [6] [fmol],M1 chain-derived peptide in the immunoprecipitate [7] [fmol],K48 chain-derived peptide in the immunoprecipitate [8] [fmol],K6 chain-derived peptide in the immunoprecipitate [9] [fmol],percentage of this chain among the 8 ubiquitin chain-derived peptides in the immunoprecipitate (control subtracted) [10] [%],percentage of this chain among the 8 ubiquitin chain-derived peptides in the immunoprecipitate (control subtracted) [11] [%],percentage of this chain among the 8 ubiquitin chain-derived peptides in the immunoprecipitate (control subtracted) [12] [%],percentage of this chain among the 8 ubiquitin chain-derived peptides in the immunoprecipitate (control subtracted) [13] [%],percentage of this chain among the 8 ubiquitin chain-derived peptides in the immunoprecipitate (control subtracted) [14] [%],percentage of this chain among the 8 ubiquitin chain-derived peptides in the immunoprecipitate (control subtracted) [15] [%],percentage of this chain among the 8 ubiquitin chain-derived peptides in the immunoprecipitate (control subtracted) [16] [%],percentage of this chain among the 8 ubiquitin chain-derived peptides in the immunoprecipitate (control subtracted) [17] [%],EST peptide (…) in the immunoprecipitate [18] [fmol],total ubiquitin in the immunoprecipitate (EST + K63 peptides) [18] [fmol]
Control IgG (antibody),0,0.02,0,0.03,0,0.19,0.19,0,0.04,0,,,,,,,,,,
"anti-polyubiquitin monoclonal antibody FK2 (0918-2, Nippon Bio-Test)",9.59,3.62,3.69,0.11,0.2,106,116,0.02,29.1,2.15,20,7,8,0,0,0,60,5,,
"anti-ubiquitin antibody P4D1 (sc-8017, Santa Cruz)",2.47,1.65,20.1,0.08,0.11,72.1,74.5,0,21.8,1.32,5,3,43,0,0,0,46,3,,
wild-type Monobody (FN3) (designed binder),,,,,,,,,,,,,,,,,,,12.3,13
